Source: paper PMC9971907, “Cryo-EM analysis of V/A-ATPase intermediates reveals the transition of the ground-state structure to steady-state structures by sequential ATP binding” (The Journal of Biological Chemistry, 2023)

Target: T1, V/A-ATPase D subunit, Thermus thermophilus (T. thermophilus, UniProt O87880 1-223)
T1 construct: V/A-ATPase D subunit (central rotor), Thermus thermophilus; also called part of the DF rotor; DF axis
T1 sequence: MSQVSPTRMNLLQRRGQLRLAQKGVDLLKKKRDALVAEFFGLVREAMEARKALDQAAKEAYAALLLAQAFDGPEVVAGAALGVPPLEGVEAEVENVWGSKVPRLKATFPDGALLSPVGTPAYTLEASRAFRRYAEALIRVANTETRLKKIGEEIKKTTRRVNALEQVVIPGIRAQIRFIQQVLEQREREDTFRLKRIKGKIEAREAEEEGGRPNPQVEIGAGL
Test: cryo-EM structure; nucleotide-free V/A-ATPase in nanodiscs, 4 uM enzyme mixed with an equal volume of x2 RB buffer (50 mM Tris-Cl pH 8.0, 100 mM KCl, 2 mM MgCl2, 5 mM PEP, 100 ug/ml PK, 20 mM ammonium sulfate) with ATP-Mg (low ATP, 60 s; or saturating ATP, 5 s or 30 s) at 25 °C; single-particle analysis, membrane domain subtracted, focused refinement of V1EG
Settings: both partners purified

binding result: binds
B1: V/A-ATPase F subunit, Thermus thermophilus (natural protein, T. thermophilus)
chain: MAVIADPETAQGFRLAGLEGYGASSAEEAQSLLETLVERGGYALVAVDEALLPDPERAVERLMRGRDLPVLLPIAGLKEAFQGHDVEGYMRELVRKTIGFDIKL
notes: V/A-ATPase F subunit (central rotor), Thermus thermophilus; also called part of the DF rotor; DF axis
